Our source for the affinity of the interactions that drive elongation (extrapolation to the x-axis) and kon values is publication PMC5221584.

For this experiment, the target named is β:C12A yeast αβ-tubulin (yeast) (UniProt P09733). In words: microtubule elongation rates by time-lapse DIC microscopy.

For “β:C12A yeast αβ-tubulin (from UniProt P09733 1-447; P02557 1-457) (complex)”, the affinity of the interactions that drive elongation (extrapolation to the x-axis) was 42 nM and the kon came to 1.22e+07 M⁻¹ s⁻¹.

As usually defined, the kon is the second-order rate constant of association. High values mean faster complex formation, low ones slower complex formation.
